Measured values as given in paper doi:10.1101/2025.08.05.667158, “Antagonistic insulin mimetics lock the insulin receptor in an alternative apo-state” (bioRxiv, 2025).
Positions of bridges follow the written chain, without caps; N, C: chain ends. Chains are numbered I, II in the order given. No end group written: not given here. adamantane scaffold = adamantane core scaffold to which the peptide C-termini are attached

B1: Trim insulin mimetic (designed binder)
peptide 1: Ac-FYDWFERQ
peptide 2: SLEEEWAQ
modifications: linker I:C-II:C via trimesic acid scaffold; not fully specified (C-terminus); also: linker at chain A 8 at chain B 8 to a chain's C-terminus via trimesic acid scaffold
notes: minimal Site-1 peptide, derived from the phage display peptides S597 and S661; minimal Site-2 peptide, derived from the phage display peptides S597 and S661; Two peptides joined through their C-termini by a trimesic acid scaffold; also called antagonist; source: synthetic (solid-phase peptide synthesis)
B2: Ada insulin mimetic (designed binder)
peptide 1: Ac-FYDWFERQ
peptide 2: SLEEEWAQ
modifications: linker I:C-II:C via adamantane scaffold; not fully specified (C-terminus); also: mixture of two diastereoisomers
notes: minimal Site-1 peptide, derived from the phage display peptides S597 and S661; minimal Site-2 peptide, derived from the phage display peptides S597 and S661; Two peptides joined through their C-termini by an adamantane scaffold; Ada is an inseparable mixture of two diastereoisomers; only one fits the cryo-EM density; also called antagonist; source: synthetic (solid-phase peptide synthesis)

Biological target: T1, IR-A in cell membranes of human IM-9 lymphocytes (human (endogenous in IM-9), UniProt P06213-2 28-1370)
T1 construct: human insulin receptor, isoform A (IR-A); Heterotetramer (alpha alpha' beta beta') of two protomers, each cut into an alpha and a beta subunit; written as one chain for the protomer; In the functional rows this molecule stands for human IR-A stably transfected in mouse embryonic fibroblasts; also called insulin receptor; source: endogenous, cell membranes of human IM-9 lymphocytes (ATCC)
Assay: radioligand binding; competition with [125I]-monoiodotyrosyl-TyrA14-insulin for IR-A in cell membranes of human IM-9 lymphocytes; each curve in duplicate, Kd from at least three curves; non-linear regression for one site binding with ligand depletion
Settings: one partner purified

T1 sequence (P06213 other isoform, or with tags, fused parts or gaps): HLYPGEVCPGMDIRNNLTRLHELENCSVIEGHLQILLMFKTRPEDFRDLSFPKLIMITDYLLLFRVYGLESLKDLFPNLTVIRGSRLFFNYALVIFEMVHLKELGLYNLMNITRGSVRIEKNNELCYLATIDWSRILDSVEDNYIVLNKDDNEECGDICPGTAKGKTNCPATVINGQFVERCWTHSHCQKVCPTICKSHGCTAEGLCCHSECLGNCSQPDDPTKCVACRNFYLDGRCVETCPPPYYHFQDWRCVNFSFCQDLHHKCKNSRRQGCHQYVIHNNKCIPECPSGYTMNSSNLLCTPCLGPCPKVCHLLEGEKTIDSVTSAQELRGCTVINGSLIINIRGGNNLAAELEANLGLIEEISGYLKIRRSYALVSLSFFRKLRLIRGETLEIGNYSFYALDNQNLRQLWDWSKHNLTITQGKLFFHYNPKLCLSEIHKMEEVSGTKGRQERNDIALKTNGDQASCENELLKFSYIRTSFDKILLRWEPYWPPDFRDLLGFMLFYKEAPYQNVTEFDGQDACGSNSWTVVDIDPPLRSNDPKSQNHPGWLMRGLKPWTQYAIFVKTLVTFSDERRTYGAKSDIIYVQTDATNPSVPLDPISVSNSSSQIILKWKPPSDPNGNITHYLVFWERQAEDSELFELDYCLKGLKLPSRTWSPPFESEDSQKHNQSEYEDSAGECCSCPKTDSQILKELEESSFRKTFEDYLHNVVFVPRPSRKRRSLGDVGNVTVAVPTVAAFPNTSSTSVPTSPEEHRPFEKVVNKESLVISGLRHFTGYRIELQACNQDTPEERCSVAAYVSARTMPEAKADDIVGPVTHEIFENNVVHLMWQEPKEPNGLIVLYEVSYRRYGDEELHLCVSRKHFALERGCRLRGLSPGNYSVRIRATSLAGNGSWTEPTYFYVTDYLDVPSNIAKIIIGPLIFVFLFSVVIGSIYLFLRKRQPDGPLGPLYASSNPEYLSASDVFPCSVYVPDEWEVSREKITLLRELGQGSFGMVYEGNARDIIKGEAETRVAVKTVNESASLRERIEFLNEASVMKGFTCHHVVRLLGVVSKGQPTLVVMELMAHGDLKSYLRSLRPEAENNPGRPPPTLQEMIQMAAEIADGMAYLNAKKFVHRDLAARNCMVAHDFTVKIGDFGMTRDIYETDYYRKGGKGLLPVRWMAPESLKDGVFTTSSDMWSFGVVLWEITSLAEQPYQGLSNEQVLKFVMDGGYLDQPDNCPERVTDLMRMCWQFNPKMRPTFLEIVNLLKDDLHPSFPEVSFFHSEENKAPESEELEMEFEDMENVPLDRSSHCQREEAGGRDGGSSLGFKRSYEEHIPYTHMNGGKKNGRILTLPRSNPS

Binder | Kd [µM]
B1 | 1.26
B2 | 0.395
